The supplement of paper PMC6757056
± gives the standard deviation of the averaged measurements.

B1: library; a variant is named by its letters at N, in order (parent)
chain: GCUGUCACCGAGAAACUGUGAAGUAUAUCUUAAACCUGGGCACUUAAAAGAUAUAUGGAGUUAGUAGUGCAACCUGCUCGGUCUGAUGAGUCCNNNNNNGGACGAAACAGC

Experiments:
[1] = variants of: B1; test: FACS-Seq fitted mean relative fluorescence mCherry/BFP without ligand (log10 relative fluorescence); HEK293T; ligand: cyclic di-GMP (c-di-GMP-II aptamer); higher = higher reporter protein expression; conditions: ligand present: no
Outline: (§1)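 To measure fluorescence, a normal distribution was fitted to read counts across sorted bins. The reporter libraries were HEK293T cells transduced by lentivirus with mCherry under ribozyme-switch control and an EF1α-BFP marker, enriched and then kept with or without ligand for 48 h. Sorting used 6 mCherry/BFP bins, and bin genomic DNA was PCR-amplified and sequenced on MiSeq. Fitted means of log10(mCherry/BFP) were scaled to five spiked-in control ribozymes.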

[2] = variants of: B1; test: normalized RNA/DNA level without ligand (relative to sTRSVctl = 100) (log10 (% of sTRSVctl)); HEK293T; ligand: cyclic di-GMP (c-di-GMP-II aptamer); higher = less ribozyme self-cleavage, higher mRNA level; conditions: reporter: mCherry (pCS4076), ligand present: no
Outline: (§2)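 Total RNA, extracted with EDTA 72 h after HEK293T cells were transfected with 4 µg per 6-well well of reporter-linked ribozyme switch library plasmids, was reverse-transcribed, amplified, barcoded and sequenced. Ligand, if used, was added 1 h before transfection. RNA level was derived from RNA reads divided by DNA reads and normalized to a spiked-in non-cleaving sequence or to the top sequences. This was multiplied by 100 and log10-transformed, with the top set of 25 sequences and a ≥100 DNA read minimum.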

[3] = variants of: B1; test: FACS-Seq fitted mean relative fluorescence mCherry/BFP with ligand (log10 relative fluorescence); HEK293T; ligand: cyclic di-GMP (c-di-GMP-II aptamer); ligand concentration (+) FACS-Seq: 1 mM; higher = higher reporter protein expression; conditions: ligand present: yes
Outline: as §1

[4] = variants of: B1; test: normalized RNA/DNA level with ligand (relative to sTRSVctl = 100) (log10 (% of sTRSVctl)); HEK293T; ligand: cyclic di-GMP (c-di-GMP-II aptamer); ligand concentration (+) RNA-Seq: 1 mM; higher = less ribozyme self-cleavage, higher mRNA level; conditions: reporter: mCherry (pCS4076), ligand present: yes
Outline: as §2

Variant | FACS-Seq fitted mean (log10) [1] | normalized RNA/DNA level without ligand (log10) [2] | FACS-Seq fitted mean (log10) [3] | normalized RNA/DNA level with ligand (log10) [4]
CAGCUU | -0.396 ± 0.075 | 1.62 ± 0.095 | -0.151 ± 0.049 | 1.75 ± 0.091
AGUUUA | -0.489 ± 0.04 | 1.53 ± 0.068 | -0.25 ± 0.013 | 1.72 ± 0.12
GACAUA | -0.45 ± 0.0083 | 1.52 ± 0.04 | -0.156 ± 0.096 | 1.68 ± 0.064
GUGUUA | -0.147 ± 0.075 | 1.58 ± 0.027 | 0.207 ± 0.022 | 1.77 ± 0.092
AGCAAU | -0.834 ± 0.048 | 1.74 ± 0.037 | -0.638 ± 0.037 | 1.87 ± 0.16
AGAUGC | -0.7631 ± 0.0076 | 1.66 ± 0.056 | -0.47 ± 0.029 | 1.77 ± 0.12
CGACUA | -0.6395 ± 0.004 | 1.35 ± 0.17 | -0.239 ± 0.0063 | 1.48 ± 0.053
UGCGAG | -0.503 ± 0.0063 | 1.7 ± 0.039 | -0.177 ± 0.052 | 1.8 ± 0.081
AAUUAA | -0.5829 ± 0.0026 | 1.51 ± 0.063 | -0.251 ± 0.11 | 1.72 ± 0.074
GUUUGG | -0.428 ± 0.018 | 1.62 ± 0.068 | -0.249 ± 0.089 | 1.8 ± 0.13
GCGGUU | -0.562 ± 0.021 | 1.6 ± 0.044 | -0.254 ± 0.0055 | 1.75 ± 0.11
GUCAAA | -0.258 ± 0.074 | 1.56 ± 0.036 | 0.0433 ± 0.047 | 1.73 ± 0.095
GUGAAU | -0.688 ± 0.083 | 1.57 ± 0.07 | -0.318 ± 0.04 | 1.75 ± 0.12
AUUCCC | -0.55 ± 0.097 | 1.8 ± 0.045 | -0.405 ± 0.018 | 1.89 ± 0.11
GUGAUU | -0.56 ± 0.007 | 1.621 ± 0.01 | -0.311 ± 0.025 | 1.79 ± 0.088
CAGACU | -0.00398 ± 0.14 | 1.584 ± 0.0086 | 0.149 ± 0.04 | 1.72 ± 0.1
AAAAGA | -0.494 ± 0.013 | 1.36 ± 0.073 | -0.116 ± 0.009 | 1.56 ± 0.14
CUCUAA | -0.433 ± 0.11 | 1.4 ± 0.083 | -0.0646 ± 0.21 | 1.61 ± 0.033
UACAGA | -0.198 ± 0.37 | 1.61 ± 0.052 | -0.101 ± 0.13 | 1.75 ± 0.14
AUAAUU | -0.558 ± 0.032 | 1.55 ± 0.027 | -0.213 ± 0.038 | 1.72 ± 0.087
ACGCAG | -0.51 ± 0.13 | 1.677 ± 0.0051 | -0.377 ± 0.0065 | 1.81 ± 0.094
CCCAAA | -0.275 ± 0.06 | 1.48 ± 0.062 | 0.0473 ± 0.081 | 1.69 ± 0.1

Variant | FACS-Seq fitted mean (log10) [1] | normalized RNA/DNA level without ligand (log10) [2] | FACS-Seq fitted mean (log10) [3] | normalized RNA/DNA level with ligand (log10) [4]
CGUAAU | -0.374 ± 0.0044 | 1.36 ± 0.17 | -0.0343 ± 0.11 | 1.53 ± 0.093
AGUGAA | -0.389 ± 0.095 | 1.36 ± 0.097 | 0.0166 ± 0.093 | 1.54 ± 0.096
CAAAGU | 0.000886 ± 0.21 | 1.7 ± 0.032 | 0.204 ± 0.087 | 1.79 ± 0.12
AAGCAA | -0.642 ± 0.0094 | 1.56 ± 0.039 | -0.454 ± 0.097 | 1.72 ± 0.062
AAACUC | -0.854 ± 0.053 | 1.706 ± 0.0065 | -0.744 ± 0.039 | 1.83 ± 0.071
UAUCAC | 0.171 ± 0.13 | 1.75 ± 0.0055 | 0.375 ± 0.051 | 1.87 ± 0.11
CGGACA | -0.421 ± 0.083 | 1.4 ± 0.13 | -0.265 ± 0.047 | 1.58 ± 0.085
GCAGGU | -0.184 ± 0.0055 | 1.66 ± 0.054 | 0.0315 ± 0.013 | 1.79 ± 0.15
GCGUGU | -0.15 ± 0.054 | 1.5 ± 0.085 | 0.114 ± 0.056 | 1.75 ± 0.083
CUGAAU | -0.0233 ± 0.075 | 1.43 ± 0.045 | 0.269 ± 0.11 | 1.61 ± 0.075
AGGUAU | -0.276 ± 0.0093 | 1.57 ± 0.046 | 0.0998 ± 0.21 | 1.76 ± 0.066
CUUCUA | -0.605 ± 0.032 | 1.44 ± 0.072 | -0.312 ± 0.059 | 1.67 ± 0.075
UGGUCG | -0.511 ± 0.12 | 1.77 ± 0.034 | -0.326 ± 0.0047 | 1.89 ± 0.045
GCCGAC | -0.43 ± 0.062 | 1.48 ± 0.13 | -0.145 ± 0.015 | 1.67 ± 0.089
GCCAAU | -0.423 ± 0.1 | 1.57 ± 0.021 | -0.105 ± 0.08 | 1.75 ± 0.11
CUGAUA | -0.362 ± 0.04 | 1.27 ± 0.11 | -0.182 ± 0.1 | 1.5 ± 0.1
AUUCGC | -0.123 ± 0.015 | 1.7768 ± 0.00017 | 0.194 ± 0.063 | 1.91 ± 0.11
UUCCGU | 0.0201 ± 0.13 | 1.7 ± 0.02 | 0.296 ± 0.053 | 1.83 ± 0.08
AAAUGA | -0.5596 ± 0.00088 | 1.43 ± 0.061 | -0.289 ± 0.037 | 1.62 ± 0.089
ACACGG | -0.501 ± 0.0065 | 1.53 ± 0.084 | -0.192 ± 0.029 | 1.69 ± 0.1
CCACCU | -0.368 ± 0.015 | 1.66 ± 0.02 | -0.107 ± 0.015 | 1.8 ± 0.096
AGUGGG | -0.534 ± 0.12 | 1.69 ± 0.069 | -0.365 ± 0.059 | 1.8 ± 0.062

Variant | FACS-Seq fitted mean (log10) [1] | normalized RNA/DNA level without ligand (log10) [2] | FACS-Seq fitted mean (log10) [3] | normalized RNA/DNA level with ligand (log10) [4]
CAGACA | -0.617 ± 0.0047 | 1.33 ± 0.059 | -0.36 ± 0.034 | 1.51 ± 0.13
CAAUCC | -0.487 ± 0.028 | 1.75 ± 0.049 | -0.368 ± 0.016 | 1.87 ± 0.11
CAAUCU | -1.02 ± 0.16 | 1.54 ± 0.069 | -0.88 ± 0.038 | 1.71 ± 0.13
UAGUGG | -0.133 ± 0.082 | 1.71 ± 0.064 | 0.162 ± 0.086 | 1.84 ± 0.069
UAGUAU | -0.121 ± 0.12 | 1.61 ± 0.028 | 0.192 ± 0.1 | 1.78 ± 0.064
ACGCUC | -0.914 ± 0.014 | 1.67 ± 0.02 | -0.852 ± 0.057 | 1.82 ± 0.16
GCGCUC | 0.151 ± 0.12 | 1.45 ± 0.13 | 0.324 ± 0.017 | 1.62 ± 0.17
GUGAGA | -0.476 ± 0.052 | 1.41 ± 0.058 | -0.164 ± 0.051 | 1.6 ± 0.089
AUUUAA | -0.437 ± 0.065 | 1.58 ± 0.074 | -0.0871 ± 0.058 | 1.75 ± 0.078
UAACGA | -0.0411 ± 0.064 | 1.59 ± 0.026 | 0.272 ± 0.15 | 1.76 ± 0.089
AUGGGU | -0.563 ± 0.083 | 1.54 ± 0.072 | -0.3945 ± 0.00061 | 1.74 ± 0.07
CUGCAA | -0.468 ± 0.049 | 1.36 ± 0.11 | -0.0644 ± 0.035 | 1.59 ± 0.097
AGGACA | -0.264 ± 0.0046 | 1.48 ± 0.11 | -0.014 ± 0.086 | 1.63 ± 0.12
UCUGGU | -0.364 ± 0.019 | 1.66 ± 0.049 | -0.0436 ± 0.031 | 1.81 ± 0.044
CUAUCC | -0.679 ± 0.11 | 1.77 ± 0.028 | -0.371 ± 0.13 | 1.88 ± 0.13
AAACAG | -0.103 ± 0.1 | 1.55 ± 0.053 | 0.169 ± 0.015 | 1.73 ± 0.095
GCUGUU | -0.596 ± 0.057 | 1.63 ± 0.059 | -0.418 ± 0.084 | 1.79 ± 0.082
UAGUUU | -0.234 ± 0.073 | 1.675 ± 0.0087 | 0.0254 ± 0.084 | 1.85 ± 0.081
CCCCCG | – | 1.79 ± 0.027 | – | 1.84 ± 0.071
AUUCAC | – | 1.76 ± 0.021 | – | 1.88 ± 0.09
UCGUAU | – | 1.53 ± 0.068 | – | 1.76 ± 0.12
